From the RNAGym collection of RNA variant scans (doi:10.7554/elife.90254)

B1: LINE1-full (parent)
chain: UACGUAGGUGGUUUUCCCCUGAUAGUGCUAAGGGGGCCUGGAAGUUUGGACUGGGCAGAGCUCAACACAGCGUGGCAAAGUGGCUGUGGCUAGACUGCCUCUCUGGAUUCCUCGUCACUCAGCAGGGCAUCUCUGAGAGAAAUGCC
B2: OR4K15 (parent)
chain: GUUAACGGUCAUAGGCCAUGGAAACUAGGAGCACCAUUUCGCUGCCAGUGAAGAAAUGAACAAAGAAAAUCUGGGCCAGGCAGGCAUCAAAAGAAAUAGUCUUGCGCUCAACCAGAAAGUCUGUAAUCAUUUUAAGGGUA

Variants of: B1
Assay: self-cleavage, relative activity (ratio to wild type); higher = more cleavage; in vitro, sequencing; the parent is a self-cleaving ribozyme

Variant | self-cleavage
U134A A140U | 0.85
U134A A140C | 0.55
U134A A140G | 0.53
A140U U143A | 1.41
A140U U143C | 1.54
G144C C145U | 0.99
C133A U143C | 1.67
A141U U143C | 0.28
U134G A136U | 1.72
U134C C146U | 1.65
A140G U143C | 0.26
A140U G144A | 1.39
U134C G135A | 2.1
A138C A140G | 0.07
A141C U143C | 1.67
A138G C146A | 1.17
G137U | 1.31
G137C | 1.3
G137A | 1.19
A141C | 1.04
A141U | 1.04
A141G | 1.1
U134G G137U | 0.94
A136C C145A | 1.72

Variant | self-cleavage
A138C U143A | 1.94
A141C A142G | 1.26
G139U C145G | 2.02
U134C A140G | 1.58
G139A A142G | 1.15
U134A A141G | 1.12
A136G A142G | 1.47
A138G A140G | 1.52
A138G A140C | 1.8
A138G A140U | 1.29
A141G U143A | 1.29
G135A C145U | 1.46
C133A A142G | 1.4
A136G C146U | 1.91
A138G U143G | 1.34
A138G U143C | 1.54
G135A A138U | 1.01
A136U C146U | 1.58
G137C A138G | 1.26
A138U U143A | 1.52
A136U A138G | 1.55
A142G C146U | 1.49
G137A A140G | 1.4
G135U A140G | 1.08

Variant | self-cleavage
G135C | 1.55
G135U | 1.22
G135A | 1.27
A138G A142C | 0.16
U134A A142C | 1.23
A140G A142U | 0.84
A138G C145A | 2.76
A140G C146U | 1.63
A136G U143A | 1.34
U134C A141G | 1.41
U143C | 1.18
U143G | 1.11
U143A | 1.12
U134C C145U | 1.1
G144U | 1.58
G144C | 1.34
G144A | 1.23
U143C C146U | 1.51
A142U U143A | 1.13
A136U A142C | 1.43
C133U A138G | 1.32
C133U A138U | 2.36
A141G C145U | 1
A136U A141G | 1.3

Variant | self-cleavage
U134G | 1.46
U134C | 1.18
U134A | 0.98
U134A A136U | 1.27
U134A A136G | 0.53
A138G | 1.21
A138C | 0.76
A138U | 1.1
A142G U143A | 1.28
A142G U143C | 1.31
A136U A140U | 1.65
A136U A140G | 1.7
A138U A142G | 0.93
A136G A138G | 1.6
A136G A138U | 1.98
A138U A140U | 0.84
A136G G137A | 2.12
U134C G139A | 1.29
U134A C145U | 0.83
A140C U143C | 1.81
A138G G144A | 0.14
A138G G144C | 1.6
C145U C146A | 1.59
U134G A141G | 1.44

Variant | self-cleavage
A141G G144A | 1.28
A140G G144U | 1.05
A136G C145U | 1.45
A136C A140G | 1.53
A140U A141G | 1.41
U143C C145U | 1.06
A138U A141G | 1.17
A141G A142C | 0.39
A142C U143A | 1.41
U134G A140G | 1.03
A140G A141U | 0.82
A136G A141G | 1.03
U134G A142G | 1.16
U134C A138G | 1.4
A136G G144A | 0.88
A136U U143A | 1.41
G139A A140G | 0.19
A142G G144A | 1.44
C146A | 1.45
C146U | 1.29

Variants of: B2
Assay: as above

Variant | self-cleavage
U2C G136A | 1.66
U2C A82G | 0.55
U2C A82U | 0.17
U2G A63C | 0.7
U3A A125G | 0.39
U2C C46U | 0.54
U2C A98G | 0.57
U2C A117G | 1.33
G1A A111G | 0.21
U3A A18G | 1.11
U3C A11G | 1.34
U2G U9C | 1.05
U2C G7U | 1.2
U2C G7A | 1.22
G1A A90G | 0.26
U2G U130C | 0.3
G1A U49C | 1.35
U2A A86G | 1.46
U2A U26C | 0.99
U2A A96G | 1.05
G1A U108C | 0.05
U2C A78C | 0.4
U2C A78U | 0.09
U2C U70G | 1.51
U2C G50U | 1.13

Variant | self-cleavage
U2C U130C | 1.06
U2A A23C | 0.29
U2C A67U | 0.85
U2C A67G | 1.13
U2C G28U | 2.17
U2A A52G | 0.8
G1A A134G | 1.75
U2C G14A | 1.39
U2C C10U | 1.04
U2A A78G | 0.46
U2A A78C | 0.66
U3A U127A | 1.84
U3C A18G | 1.02
U3C A18U | 0.78
U2G G93U | 1.01
U2C A24G | 1.09
U2C U124C | 0.42
U2A A22U | 0.88
G1U U87C | 0.27
U2A A114G | 0.67
U2C A95G | 1.53
U2C A95U | 0.99
U2C G138A | 1.1
U2C A13G | 0.99
U2C A64U | 1.3

Variant | self-cleavage
U2C G137U | 1.25
U2G A140G | 1.09
G1U A36G | 1.26
U2C U131G | 1.08
U3A U70A | 1.46
U2A U102A | 1.51
U3A U131C | 0.64
G1A G138A | 2.03
U2C A96G | 1.1
U2C U100A | 0.48
U2A U3A | 1.16
G1U U103C | 1.59
U2C A47G | 1.28
U2C A47U | 0.86
G1A A33G | 0.78
U2C U132C | 1.4
U2C U26C | 1.2
U2C U26G | 0.72
U2G A118G | 0.66
U2C A22G | 1.11
U2C A22U | 1.51
U2G U102C | 0.94
U2C U139A | 0.92
U2C U72G | 0.19
U2C U37C | 1.26

Variant | self-cleavage
U2C U37G | 0.75
U2C U133C | 0.71
U2A C77U | 1.39
U2G U39C | 2.03
U2C A125G | 0.55
U2C A114C | 0.03
U2A C45A | 1.82
U2G U3C | 1.11
U2C A129G | 0.75
U2C A129U | 0.84
G1A U9G | 1.23
U2C A54G | 0.68
U2C A54U | 1.61
U2G A116G | 0.37
U3C A5G | 1
U3A G65U | 0.33
G1A G137A | 0.95
U2A A5G | 1.24
U2C A135U | 0.5
U2G A92G | 0.73
U2C A23G | 1.01
U2C A86G | 0.95
U2C A86U | 2.13
U2G U57C | 1.13
U2C U122A | 1.85

Variant | self-cleavage
U2C A55U | 1.46
U2C A55G | 1.15
U2A C61U | 0.71
U2C A92G | 0.98
U3A G53A | 1.01
U2A A125U | 2.08
U2C U38C | 1.09
U2C U38A | 1.07
U2G U12C | 0.61
U2G U12A | 1.45
U2A A36U | 1.18
U2A A118G | 0.95
U3A A92G | 1.3
U2C U103C | 0.99
G1A A92G | 1.66
U2A A24C | 0.96
U2A A24G | 0.54
U2C C25U | 1.85
U2C U108A | 0.01
U3A U139A | 1.89
U2G A111U | 0.17
U2G A111G | 0
U2G U132C | 1.4
U2C C61U | 1.77
U2C A4G | 0.87

Variant | self-cleavage
U2C C16U | 0.69
U2A U43G | 1.11
U2C G74A | 0.18
U2C G74U | 0.08
U2A G104A | 0.16
G1U A5G | 0.45
U2C A52U | 0.38
U2C A60U | 1.67
U2C C109U | 0.29
U2C A111U | 0.27
U2C A51U | 0.82
U2C A51G | 0.84
U2C U87A | 0.9
U2C U57G | 0.66
U2C U57C | 0.75
G1A U122C | 0.48
U2A A129G | 0.66
U2G A135G | 0.69
U2A A89U | 1.2
U3A A23G | 1.17
U2C A110G | 0.11
U3A A5U | 0.64
U2C A126U | 0.77
G1U U39A | 1.74
U2A A18G | 0.91

Variant | self-cleavage
U2A U87A | 1.32
U2G A23G | 0.75
U2A G14C | 0.7
U3A A126G | 1.73
U3A A64G | 1.11
U2G A51G | 0.95
U2G U38A | 1.08
U2A U127C | 1.08
U2C G53U | 1.64
G1A C40U | 1.78
U2C G75U | 0.27
G1A A95G | 2.4
U2C C128A | 0.85
G1U C105A | 0.03
U2A U49C | 1.68
U3C A22G | 1.33
U2C A68G | 1.13
U2A | 0.8
U2C | 0.88
U2G | 0.92
U2C A30G | 1.22
G1A A82G | 1.18
U2C C112U | 0
G1A U72C | 0.39
U2G A11G | 1.05

Variant | self-cleavage
U2C U102C | 0.64
U2C U102A | 0.73
U3A U130G | 0.73
U2C A66C | 0.66
U2C C76A | 0.1
U2C A69U | 1.15
U3A A22G | 1.2
U2G A94G | 0.48
U3A A116G | 0.32
U3A A89G | 1.51
U2A U108C | 0.04
U2C U3C | 0.98
U2A A135U | 0.96
U3A A47U | 1.18
U2A U132C | 1.21
U2A U100C | 0.89
U3A U100C | 1.63
U2C A33C | 0.88
U2A A110G | 0.16
U2C A5G | 0.24
G1A A4G | 0.54
U2C A89U | 1.7
U2C A89G | 0.63
G1U A114G | 0.33
U3A A66G | 1.1

Variant | self-cleavage
U2A G106A | 0.06
U2C U49A | 1.5
U2C U49C | 1.34
U2C A116U | 0
U2C U120C | 0.43
G1A A18C | 1.98
G1A A18G | 1.58
G1U A24G | 1.6
U2A A51U | 0.86
G1U A33G | 0.79
G1U A33U | 1.75
U2G A33G | 0.43
U2G U19A | 0.72
U2C A140G | 0.72
G1A U132C | 0.94
U2C G84A | 1.46
U3A A111G | 0.08
G1A A62C | 2.59
